Measurements reported in paper PMC8473235.

Tested on: GST-VPg (Tulane virus) (Tulane virus)
Test: ELASA

Row | Sequence | binding signal (positive:negative absorbance ratio)
1 | AGTATACGTATTACCTGCAGCAAGGCTTTTTTAAAGGCTAGGCTTGATAATCGGTTAACTCCGATATCTCGGAGATCTTGC [N4-2] | > 10
2 | AGTATACGTATTACCTGCAGCTCTTCGGTTTAATAAAGTTGGCTAGGAAAGTTTAAAACCGCGATATCTCGGAGATCTTGC [N13] | > 5
3 | AGTATACGTATTACCTGCAGCTGTCGATAAAGTGAGTTAAGTCACCGGCCCGGCCTATTCGCGATATCTCGGAGATCTTGC [N11-2] | > 10
4 | AGTATACGTATTACCTGCAGCCGGGTCTCGTCTATGCAGTACTCAAAACGCTTGAGGTACCGACGATATCTCGGAGATCTTGC [N1-2] | > 10
5 | AGTATACGTATTACCTGCAGCTGTCGTTAATTATTCGTGATCTGACAACCCGATCACTCTCCGATATCTCGGAGATCTTGC [T10-2] | > 10
6 | AGTATACGTATTACCTGCAGCTAGTAACGATTACCAAAATTCTCCCGAGGCTGACAACCCGCGATATCTCGGAGATCTTGC [T1-2] | > 10
7 | AGTATACGTATTACCTGCAGCTGGAAGGCGGGAAGATTTTTGGTCGACCTGACAACCCGGTCGATATCTCGGAGATCTTGC [T9] | > 10
8 | AGTATACGTATTACCTGCAGCAGGGATGTGTTGGATGCATGCCAGGCTTGGTAACATTGTACGATATCTCGGAGATCTTGC [N3] | > 10
9 | AGTATACGTATTACCTGCAGCAGTGGGTGGTGATGAATTCTGGTCGCGCTGACAACCCGCGCGATATCTCGGAGATCTTGC [N14] | > 10
10 | AGTATACGTATTACCTGCAGCCAGAGTTGATGTAAGCTTCGTGTTAGCTCAACTCTTATCGCGATATCTCGGAGATCTTGC [N6] | > 10
11 | AGTATACGTATTACCTGCAGCTCACACTCGTTTCTATTACTAAAACATCGTTCCTTTCAGCCGATATCTCGGAGATCTTGC [T5 (= N12-2)] | > 10
12 | AGTATACGTATTACCTGCAGCTCGAGGTATGGCCTTGTCTAGGCGCACCTGACAACCCGGTGCGATATCTCGGAGATCTTGC [T9-2] | > 10
